Laboratory results reported in PMC4552821 (2015).
Like-named read-outs stand apart in the source and are kept apart here.

Assays:
[1] = target: T1, kerateine (reduced hair keratin extract) (Homo sapiens, UniProt Q15323); test: SPR
[2] = target: T1, kerateine (reduced hair keratin extract); test: SPR; remark: listed apart in the source

B1: BMP-2 (protein)
chain: QAKHKQRKRLKSSCKRHPLYVDFSDVGWNDWIVAPPGYHAFYCHGECPFPLADHLNSTNHAIVQTLVNSVNSKIPKACCVPTELSAISMLYLDENEKVVLKNYQDMVVEGCGCR
Q: What does the source list for B1?
A: Kd [1]: 32 µM; Kd [2]: 0.11 µM
